Assay results taken from patent US20260265385A1 (ANAPTYSBIO, published 2026).
Where a chain is given by its changes, count along the chain named.

B1: APE12705 (antibody, V domains shown)
VH: DVQLQQSGAELARPGASVKLSCTVSGFNFKDSLMHWVTQGPERGLRWIGWIDSENGETEYAPGFQDKATITADTSSSTVYLHLSSLTSEDTAIYYCARGGPWFLSYWGPGTTLTVSS
VL: DIVLTQTPATLSVTPGDSVSLSCRASQIISNNLHWYQQKSHESPRLLIIYGLQSISGIPYRFSGRRSGTDFTLNINSVEIEDFGMYFCQQSNNWPWTFGGGTKLDIRR
notes: M10-1275 series; human kappa detected by the secondary antibody; also called APE 12705.02; M10-1275
B2: APE12383 (antibody, V domains shown)
VH: QVQLQQSGAELMKPGASVKISCKSTGYTFSRYWIEWVKQRPGHGLEWIGEILPGSGSINHNEKFQGKATFTADTSSNTVYMQLSSLTSEDSAVYFCTRHYGSFDYWGQGTTLTVSS
VL: EIVMTQSPKFMSTSVGDRVSVTCKASQNVGTDVAWYQQKPGQSPKALIYSASYRYNGVPDRFTGSGSGTDFTLTISNVQSEDLAEYFCHQYSSYPFTFGSGTKLEIKR
notes: M6-p1625 series; human kappa detected by the secondary antibody; also called APE 12383.03; M6-p1625

How the values were obtained:
[1] = target: T1, recombinant human IL-2Rβ (extracellular domain, Ala1-Thr215) (human, UniProt P14784 27-240); assay: SPR
T1 construct: extracellular domain; Analyte in SPR; Ala1-Thr215 is counted on the mature protein; also called human LL-2Rβ; Human IL-2RB
T1 sequence (looked up): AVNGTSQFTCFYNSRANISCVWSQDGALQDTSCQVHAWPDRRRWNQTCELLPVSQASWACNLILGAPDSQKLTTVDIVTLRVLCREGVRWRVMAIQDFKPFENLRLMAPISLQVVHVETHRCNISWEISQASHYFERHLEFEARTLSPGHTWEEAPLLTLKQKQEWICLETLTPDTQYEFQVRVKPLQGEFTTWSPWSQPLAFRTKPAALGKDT

[2] = target: T2, recombinant cynomolgus IL-2Rβ (extracellular domain, Ala1-Thr215) (cynomolgus, UniProt Q38J85 27-240); assay: SPR
T2 construct: extracellular domain; Analyte in SPR; also called cynomolgus LL-2Rβ; Cyno IL-2RB
T2 sequence (looked up): T1 sequence (looked up) with Q7R, A66T, T74A, L83M, V92M, E127K, L158M

[3] = target: T1, recombinant human IL-2Rβ (extracellular …); assay: SPR, antibody captured on Protein A chip
In short: (§1)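 Antibodies captured on a Protein A chip (0.5 μg/mL, 60 s), then exposed to IL-2Rβ extracellular domain (Ala1-Thr215) at about 0.4–11 nM; 300 s association, 1200 s dissociation. On- and off-rates and KD from a global 1:1 binding fit.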

[4] = target: T2, recombinant cynomolgus IL-2Rβ …; assay: SPR, antibody captured on Protein A chip
In short: as §1

[5] = target: T3, human IL-2Rβ (CD122), full-length, on cells (human, UniProt P14784 27-551); assay: flow cytometry on CHO-K1 cells expressing human IL-2Rβ and IL-2Rγ
T3 construct: whole, on cells; also called human IL-2Rβγ; human IL-2βγ
T3 sequence (looked up): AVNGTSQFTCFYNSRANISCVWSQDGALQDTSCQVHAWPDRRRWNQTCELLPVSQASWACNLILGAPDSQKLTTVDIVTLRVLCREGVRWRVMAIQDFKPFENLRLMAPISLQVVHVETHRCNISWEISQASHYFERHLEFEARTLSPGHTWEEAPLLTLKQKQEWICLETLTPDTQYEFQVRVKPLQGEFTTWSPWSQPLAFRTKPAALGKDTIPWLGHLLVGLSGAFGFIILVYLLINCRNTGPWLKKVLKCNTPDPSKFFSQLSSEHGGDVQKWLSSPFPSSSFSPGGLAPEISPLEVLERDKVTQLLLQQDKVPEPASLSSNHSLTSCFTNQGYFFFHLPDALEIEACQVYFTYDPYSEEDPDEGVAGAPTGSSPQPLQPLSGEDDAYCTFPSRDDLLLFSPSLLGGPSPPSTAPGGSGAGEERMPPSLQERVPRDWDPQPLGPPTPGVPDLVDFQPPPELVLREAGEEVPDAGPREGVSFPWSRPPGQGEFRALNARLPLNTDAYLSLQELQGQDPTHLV
Method: (§2) CHO-K1 cells stably expressing full-length human or cynomolgus IL-2Rβ and IL-2Rγ cultured in the log phase of growth were harvested with Accutase solution, resuspended in FACS buffer, and plated at 100,000 cells/well in a 96-well plate. The concentrations of antibodies indicated in FIGS. 1 and 2 starting at 100 nM and diluted 1:3 were incubated with the cells for 45 minutes on a plate shaker at 4° C. After washing, the cells were incubated with goat-anti-human kappa DyL650 secondary antibody for 20 minutes on a plate shaker at 4° C. Cells were washed again and analyzed on a FACSArray flow cytometer. Data were analyzed using Novoexpress and GraphPad Prism software. Table 3 lists anti-CD122 chimeric antibody binding characteristics: affinity to human and cyno CD122 protein (KD, measured by SPR assay), ability to block IL-2 (SPR assay), and binding EC50 to cell-expressed human and cyno CD122/CD132 (cell-based receptor binding assay).

[6] = target: T4, cynomolgus IL-2Rβ (CD122), full-length, on cells (cynomolgus, UniProt Q38J85 27-551); assay: flow cytometry on CHO-K1 cells expressing cynomolgus IL-2Rβ and IL-2Rγ
T4 construct: whole, on cells; Co-expressed with full-length cynomolgus IL-2Rγ on CHO-K1 cells; also called cynomolgus IL-2Rβγ; cyno IL-2βγ
T4 sequence (looked up): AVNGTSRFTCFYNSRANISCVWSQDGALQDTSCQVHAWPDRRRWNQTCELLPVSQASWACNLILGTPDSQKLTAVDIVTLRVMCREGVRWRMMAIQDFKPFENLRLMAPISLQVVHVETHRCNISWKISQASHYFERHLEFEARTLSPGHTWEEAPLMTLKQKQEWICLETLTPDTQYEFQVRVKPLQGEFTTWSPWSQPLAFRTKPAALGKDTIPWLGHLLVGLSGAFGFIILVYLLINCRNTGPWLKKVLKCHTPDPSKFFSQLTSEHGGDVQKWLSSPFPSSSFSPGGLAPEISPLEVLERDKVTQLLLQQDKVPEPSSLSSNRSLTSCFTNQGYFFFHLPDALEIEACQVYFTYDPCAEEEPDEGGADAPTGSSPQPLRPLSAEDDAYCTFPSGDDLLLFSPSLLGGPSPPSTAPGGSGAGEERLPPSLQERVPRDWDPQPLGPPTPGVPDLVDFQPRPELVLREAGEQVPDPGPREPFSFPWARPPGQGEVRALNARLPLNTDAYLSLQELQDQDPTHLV
Method: as §2

Binder	Kd [1] [pM]	Kd [2] [pM]	Kd [3] [pM]	Kd [4] [pM]	EC50 [5] [pM]	EC50 [6] [pM]
B1	~80	~20	80	20	174	87.6
B2	~340	~260	340	260	142	147
